In US20230063965A1 (YEDA RESEARCH AND DEVELOPMENT, published 2023):

T1: hFcγRIIB (human, UniProt P31994 43-217, limits assumed)
T1 construct: also called CD32B; huFcγRIIB
T1 sequence (looked up): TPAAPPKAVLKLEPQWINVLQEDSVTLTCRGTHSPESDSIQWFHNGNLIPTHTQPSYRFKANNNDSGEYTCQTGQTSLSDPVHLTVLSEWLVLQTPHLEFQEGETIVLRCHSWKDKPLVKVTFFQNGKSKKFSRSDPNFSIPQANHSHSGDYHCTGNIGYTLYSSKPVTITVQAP

T2: hFcγRIIA R131 (human, UniProt P12318 34-218, limits assumed)
T2 construct: R131 allotype as printed (131 is mature-protein numbering)
T2 sequence (looked up): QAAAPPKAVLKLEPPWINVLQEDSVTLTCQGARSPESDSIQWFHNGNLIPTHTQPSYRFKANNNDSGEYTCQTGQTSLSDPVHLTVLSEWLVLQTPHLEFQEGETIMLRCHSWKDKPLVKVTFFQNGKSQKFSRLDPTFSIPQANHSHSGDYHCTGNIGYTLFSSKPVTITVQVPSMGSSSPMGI


Tests used:
hFcγRIIB [1] = biological target: T1, hFcγRIIB; assay: SPR, immobilized FcγRs, soluble IgGs
hFcγRIIA R131 = biological target: T2, hFcγRIIA R131; assay: SPR, immobilized FcγRs, soluble IgGs
[2] = biological target: T3, hFcγRII^F158 (so in the source); read as hFcγRIIIA F158) (human, UniProt P08637 17-208); assay: SPR, immobilized FcγRs, soluble IgGs
T3 construct: The head is printed 'hFcγRII^F158'; also called huFcγRIIIA
T3 sequence (P08637 17-208 limits assumed): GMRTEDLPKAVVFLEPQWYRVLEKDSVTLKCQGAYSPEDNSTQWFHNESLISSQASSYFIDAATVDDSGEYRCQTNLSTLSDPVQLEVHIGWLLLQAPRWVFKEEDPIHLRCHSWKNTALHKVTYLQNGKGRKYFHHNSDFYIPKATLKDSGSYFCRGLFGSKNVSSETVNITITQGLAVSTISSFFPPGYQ

FcgR1 = biological target: T4, FcgR1 (human, UniProt P12314); assay: FcγR binding ELISA, plate-bound human FcγRI soluble ectodomain, serially diluted IgG, Δabsorbance 450 nm; panel FcgR1
T4 construct: soluble ectodomain; also called human FcγRI soluble ectodomain (ELISA); FcγRI
T4 sequence (P12314 16-292 limits assumed): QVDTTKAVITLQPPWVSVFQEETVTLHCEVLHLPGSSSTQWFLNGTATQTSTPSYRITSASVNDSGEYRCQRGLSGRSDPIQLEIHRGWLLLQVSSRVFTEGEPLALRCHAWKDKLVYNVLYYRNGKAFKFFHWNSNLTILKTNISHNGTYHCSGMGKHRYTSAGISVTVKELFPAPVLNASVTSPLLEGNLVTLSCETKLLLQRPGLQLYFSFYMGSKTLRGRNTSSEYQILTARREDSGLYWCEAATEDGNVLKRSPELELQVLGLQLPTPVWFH
Method: (§1) ELISA plates (Nunc) were coated overnight at 4° C. with recombinant PD-L1 (1 μg/mL/well). All sequential steps were performed at room temperature in 2% BSA. After being washed, the plates were blocked for 1 hr with 1×PBS with 2% Bovine serum Albumin and were subsequently incubated for 1 hr with serially diluted IgGs. After washing, plates were incubated for 1 hr with HRP-conjugated anti-mouse IgG (Jackson ImmunoResearch). Detection was performed by TMB Soluble Reagent (ScyTek Laboratories) and reactions stopped with the addition of 0.18 M sulfuric acid. Absorbance at 450 nm was immediately recorded using a SpectraMax Plus spectrophotometer (Molecular Devices) and background absorbance from negative control samples was subtracted. […] After washing, plates were incubated for 1 hr with streptavidin-HRP (Jackson ImmunoResearch). (2) For FcγR binding ELISA, human FcγRs soluble ectodomains (2 μg/ml/well) were immobilized to the plate. After being washed, the plates were blocked for 40 minutes with 1×PBS with 10% Bovine serum Albumin and were subsequently incubated for 2 hours with serially diluted IgGs.

[3] = biological target: T5, human FcγRIIIA soluble ectodomain (ELISA) (human, UniProt P08637 17-208); assay: FcγR binding ELISA, plate-bound human FcγRIIIA soluble ectodomain, serially diluted IgG, Δabsorbance 450 nm; panel FcgR3A
T5 construct: extracellular domain
T5 sequence (P08637 17-208): as the sequence (P08637 17-208 limits assumed) above
Method: as §1

hFcγRIIB [4] = biological target: T1, hFcγRIIB; assay: FcγR binding ELISA, plate-bound human FcγRIIB soluble ectodomain, serially diluted IgG, Δabsorbance 450 nm; panel Fcg2B
Method: as §1

[5] = biological target: T6, human FcγRIIIB soluble ectodomain (ELISA) (human, UniProt O75015 17-200, limits assumed); assay: FcγR binding ELISA, plate-bound human FcγRIIIB soluble ectodomain, serially diluted IgG, Δabsorbance 450 nm; panel Fcg3B
T6 construct: extracellular domain
T6 sequence (O75015 17-200 limits assumed): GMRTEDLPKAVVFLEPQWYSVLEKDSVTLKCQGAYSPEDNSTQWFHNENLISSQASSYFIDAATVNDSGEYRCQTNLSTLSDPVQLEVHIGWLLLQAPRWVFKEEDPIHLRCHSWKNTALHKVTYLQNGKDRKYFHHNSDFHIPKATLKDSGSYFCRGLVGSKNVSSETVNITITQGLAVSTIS
Method: as §1

| Fold (KD(IgG1)/KD(Fc variant)) (hFcγRIIB [1]) [fold] | Kd (hFcγRIIB [1]) [nM] | Fold (KD(IgG1)/KD(Fc variant)) (hFcγRIIA R131) [fold] | Kd (hFcγRIIA R131) [nM] | Fold (KD(IgG1)/KD(Fc variant)) [2] [fold] | Kd [2] [nM] | binding result (FcgR1) | EC50 (read off the curve) [3] [µg/mL] | binding result (hFcγRIIA R131) | binding result [2] | binding result (hFcγRIIB [4]) | binding result [5] | Binder | binding result [3] |
| --- | --- | --- | --- | --- | --- | --- | --- | --- | --- | --- | --- | --- | --- |
| 1.1 | 2800 | 1 | 1160 | 11.6 | 578 | binds | ~2 | – | – | – | – | Avelumab Afucosylated Fc variant (antibody, human IgG1, lambda, afucosylated Fc glycan (N297, EU); fucose content of about 28%, also called non-fucosylated Fc glycan) heavy: not shown light: QSALTQPASVSGSPGQSITISCTGTSSDVGGYNYVSWYQQHPGKAPKLMIYDVSNRPSGVSNRFSGSKSGNTASLTISGLQAEDEADYYCSSYTSSSTRVFGTGTKVTVLGQPKANPTVTLFPPSSEELQANKATLVCLISDFYPGAVTVAWKADGSPVKAGVETTKPSKQSNNKYAASSYLSLTPEQWKSHRSYSCQVTHEGSTVEKTVAPTECS | – |
| 1 | 3010 | 1 | 1160 | 1 | 6700 | binds | – | – | – | – | – | Avelumab IgG1 (wild type human IgG1) (antibody, Made recombinantly in Expi293 cells) heavy: not shown light: QSALTQPASVSGSPGQSITISCTGTSSDVGGYNYVSWYQQHPGKAPKLMIYDVSNRPSGVSNRFSGSKSGNTASLTISGLQAEDEADYYCSSYTSSSTRVFGTGTKVTVLGQPKANPTVTLFPPSSEELQANKATLVCLISDFYPGAVTVAWKADGSPVKAGVETTKPSKQSNNKYAASSYLSLTPEQWKSHRSYSCQVTHEGSTVEKTVAPTECS | – |
| 14 | 230 | 24.5 | 47 | 29.5 | 227 | – | – | – | – | – | – | Avelumab GASDALIE (G236A/S239D/A330L/I332E) (antibody, human IgG1, lambda, also called GASDLIE) heavy: EVQLLESGGGLVQPGGSLRLSCAASGFTFSSYIMMWVRQAPGKGLEWVSSIYPSGGITFYADTVKGRFTISRDNSKNTLYLQMNSLRAEDTAVYYCARIKLGTVTTVDYWGQGTLVTVSSASTKGPSVFPLAPSSKSTSGGTAALGCLVKDYFPEPVTVSWNSGALTSGVHTFPAVLQSSGLYSLSSVVTVPSSSLGTQTYICNVNHKPSNTKVDKKVEPKSCDKTHTCPPCPAPELLAGPDVFLFPPKPKDTLMISRTPEVTCVVVDVSHEDPEVKFNWYVDGVEVHNAKTKPREEQYNSTYRVVSVLTVLHQDWLNGKEYKCKVSNKALPLPEEKTISKAKGQPREPQVYTLPPSRDELTKNQVSLTCLVKGFYPSDIAVEWESNGQPENNYKTTPPVLDSDGSFFLYSKLTVDKSRWQQGNVFSCSVMHEALHNHYTQKSLSLSPGK light: QSALTQPASVSGSPGQSITISCTGTSSDVGGYNYVSWYQQHPGKAPKLMIYDVSNRPSGVSNRFSGSKSGNTASLTISGLQAEDEADYYCSSYTSSSTRVFGTGTKVTVLGQPKANPTVTLFPPSSEELQANKATLVCLISDFYPGAVTVAWKADGSPVKAGVETTKPSKQSNNKYAASSYLSLTPEQWKSHRSYSCQVTHEGSTVEKTVAPTECS | – |
| 0.7 | 4380 | 9.3 | 120 | 1.7 | 3900 | – | – | – | – | – | – | Avelumab G236A (antibody, human IgG1, lambda) heavy: not shown light: QSALTQPASVSGSPGQSITISCTGTSSDVGGYNYVSWYQQHPGKAPKLMIYDVSNRPSGVSNRFSGSKSGNTASLTISGLQAEDEADYYCSSYTSSSTRVFGTGTKVTVLGQPKANPTVTLFPPSSEELQANKATLVCLISDFYPGAVTVAWKADGSPVKAGVETTKPSKQSNNKYAASSYLSLTPEQWKSHRSYSCQVTHEGSTVEKTVAPTECS | – |
| – | – | – | – | – | – | binds | – | no binding | no binding | no binding (tested: log 2 (100 µg/ml)) | no binding (tested: log 2 (100 µg/ml)) | Avelumab N297A (FcγR-binding null IgG1) (antibody, name in EU numbering, also called Fc-silent (N297A) variant) heavy: not shown light: QSALTQPASVSGSPGQSITISCTGTSSDVGGYNYVSWYQQHPGKAPKLMIYDVSNRPSGVSNRFSGSKSGNTASLTISGLQAEDEADYYCSSYTSSSTRVFGTGTKVTVLGQPKANPTVTLFPPSSEELQANKATLVCLISDFYPGAVTVAWKADGSPVKAGVETTKPSKQSNNKYAASSYLSLTPEQWKSHRSYSCQVTHEGSTVEKTVAPTECS | no binding (tested: log 1.2 (about 16 µg/ml)) |
| 1.1 | 2800 | 1.2 | 950 | 5.4 | – | – | – | – | – | – | – | Avelumab ALIE (A330L/I332E) (antibody, human IgG1, lambda) heavy: not shown light: QSALTQPASVSGSPGQSITISCTGTSSDVGGYNYVSWYQQHPGKAPKLMIYDVSNRPSGVSNRFSGSKSGNTASLTISGLQAEDEADYYCSSYTSSSTRVFGTGTKVTVLGQPKANPTVTLFPPSSEELQANKATLVCLISDFYPGAVTVAWKADGSPVKAGVETTKPSKQSNNKYAASSYLSLTPEQWKSHRSYSCQVTHEGSTVEKTVAPTECS | – |
